The target of experiment [1] is T1, cynomolgus LAG-3 expressed on CHO-K1 cells (cynomolgus).
T1 construct: whole, on cells
Kind of experiment: flow cytometry on CHO-K1 cells expressing cynomolgus LAG-3. As to the method:
To determine cell binding EC₅₀, CHO-K1 cells expressing human or cynomolgus LAG-3 were harvested and incubated with anti-LAG-3 sdAb-Fc fusion proteins at gradient concentrations, followed by fluorophore-labeled secondary antibodies against human Fc. […] The samples were then analyzed with flow cytometry. The binding and blocking curves were shown in FIG. 4 and FIG. 5, respectively.
Background: A flow cytometer gives signals particle by particle.

Experiment [2] has as its target T2, Cynomolgus LAG-3-Fc (cynomolgus).
T2 construct: Bought recombinant protein; also called cynomolgus LAG-3 protein (Acrobiosystem, 2187-71HF1-DZ)
Kind of experiment: SPR (Biacore T200); antibody captured on chip, LAG-3 injected. Background: In SPR one partner is held on a chip, and binding of the other changes the refractive index at the surface.
Method: BIACORE™ T200 instrument was utilized to determine the affinity constant (KD) of each anti-LAG-3 antibody (sdAb-Fc fusion protein or mAb format) by SPR. Briefly, anti-LAG-3 antibody was immobilized on the sensor chip through capture antibody (Jackson ImmunoResearch Cat. No.115-005-071) at an appropriate density. […] The data of dissociation rate constant (koff) and association rate constant (kₘ) were obtained using BIACORE™ T200 evaluation software and the affinity constant (KD) were calculated from the ratio of koff to kₘ.

Experiment [3] addresses T2, Cynomolgus LAG-3-Fc. The experiment can be described thus: SPR (Biacore T200); cynomolgus LAG-3 immobilized, antibody injected.
From the text: BIACORE™ T200 instrument was utilized to determine affinity constant (KD) of each anti-LAG-3 antibody (sdAb-Fc fusion protein or mAb format) by SPR. Briefly, for measuring the affinity against human LAG-3, anti-LAG-3 antibody was immobilized on the sensor chip through capture antibody (Jackson ImmunoResearch Cat.No.115-005-071) at an appropriate density. […] The data of dissociation rate constant (koff) and association rate constant (k₀n) were obtained using BIACORE™ T200 evaluation software and the affinity constant (KD) were calculated from the ratio of koff to kₒₙ.
Experiment [4] has as its target LAG-3 on Thaw-and-Use LAG-3 Effector cells. Kind of experiment: cell-based or functional assay.
The target is the same in experiment [5]. The experiment can be described thus: cell-based or functional assay. The source holds these as a separate data set.
The target in experiment [6] is T3, LAG-3-Fc (human, UniProt P18627 29-450, biotinylated (in the blocking assays)).
T3 construct: Recombinant LAG-3-Fc (Acrobiosystems / R&D Systems); also called biotinylated LAG-3-Fc protein; not shown: Fc part
T3 sequence: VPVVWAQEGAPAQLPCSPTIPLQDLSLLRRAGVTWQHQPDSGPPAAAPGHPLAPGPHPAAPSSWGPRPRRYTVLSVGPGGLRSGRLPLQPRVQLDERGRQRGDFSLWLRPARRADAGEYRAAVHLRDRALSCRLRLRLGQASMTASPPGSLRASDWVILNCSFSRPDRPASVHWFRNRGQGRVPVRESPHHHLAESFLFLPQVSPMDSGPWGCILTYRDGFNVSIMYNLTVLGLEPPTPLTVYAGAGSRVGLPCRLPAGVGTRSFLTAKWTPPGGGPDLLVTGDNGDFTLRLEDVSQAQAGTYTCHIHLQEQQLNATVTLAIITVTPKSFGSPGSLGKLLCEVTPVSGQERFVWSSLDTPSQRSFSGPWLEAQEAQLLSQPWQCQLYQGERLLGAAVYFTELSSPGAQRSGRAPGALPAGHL
Kind of experiment: flow cytometry competition; blocks LAG-3-Fc binding to MHC II on A375 cells; Experiment 1.

Experiment [7] has as its target T4, PD-1 expressed on CHO cells (UniProt Q15116 25-288, limits assumed).
T4 construct: whole, on cells; also called CHO-PD-1 cells
The experiment can be described thus: flow cytometry on CHO cells expressing PD-1; Experiment 1.

Experiment [8] has as its target T4, PD-1 expressed on CHO cells. Kind of experiment: flow cytometry competition; blocks PD-L1 binding to CHO-PD-1 cells; Experiment 1.
Experiment [9] addresses T5, human LAG-3 expressed on CHO-K1 cells (human, UniProt P18627 29-525).
T5 construct: also called CHO-huLAG-3 cells; LAG-3 expressed on CHO cells
T5 sequence: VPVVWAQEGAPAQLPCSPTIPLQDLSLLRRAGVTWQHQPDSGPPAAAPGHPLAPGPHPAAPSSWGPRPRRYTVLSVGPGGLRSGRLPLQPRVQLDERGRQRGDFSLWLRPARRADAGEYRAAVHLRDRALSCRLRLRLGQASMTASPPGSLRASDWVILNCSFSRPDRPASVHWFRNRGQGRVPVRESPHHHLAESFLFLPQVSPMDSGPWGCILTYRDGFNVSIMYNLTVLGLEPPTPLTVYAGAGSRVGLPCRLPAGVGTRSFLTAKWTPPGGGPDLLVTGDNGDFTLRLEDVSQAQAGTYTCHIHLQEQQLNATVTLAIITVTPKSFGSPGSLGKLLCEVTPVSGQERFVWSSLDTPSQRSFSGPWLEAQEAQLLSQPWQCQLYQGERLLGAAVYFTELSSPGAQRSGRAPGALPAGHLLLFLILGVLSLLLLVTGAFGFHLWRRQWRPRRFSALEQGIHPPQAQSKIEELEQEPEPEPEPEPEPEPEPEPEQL
The experiment can be described thus: flow cytometry on CHO cells expressing LAG-3; Experiment 1.

The target in experiment [10] is T6, Human LAG-3-His (human, UniProt P18627 29-450).
T6 construct: Bought recombinant protein; also called Human LAG-3 protein (Acrobiosystem, 772-6BGF2-D5); not shown: His tag
T6 sequence: T3 sequence
Kind of experiment: SPR (Biacore T200), as in Example 3; Experiment 1.

Experiment [11] has as its target Human PD-1 (human, UniProt Q15116 25-167, limits assumed). The experiment can be described thus: SPR (Biacore T200), as in Example 3; Experiment 1.
Experiment [12] addresses PD-1 in the PD-1 cell based reporter assay. The experiment can be described thus: cell-based or functional assay.

Where “and” joins values, the source holds several entries; their conditions need not be identical. Equal values may be shown once. Read-outs that look alike come from different tables or passages of the source.

T4 sequence (Q15116 25-288 limits assumed): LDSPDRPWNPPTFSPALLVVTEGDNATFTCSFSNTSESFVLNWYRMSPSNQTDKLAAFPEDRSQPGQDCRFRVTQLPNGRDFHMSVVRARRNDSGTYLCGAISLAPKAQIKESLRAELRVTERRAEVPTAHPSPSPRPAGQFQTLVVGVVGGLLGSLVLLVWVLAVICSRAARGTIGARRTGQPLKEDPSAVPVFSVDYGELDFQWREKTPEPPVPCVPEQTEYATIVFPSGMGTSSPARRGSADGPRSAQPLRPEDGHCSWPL
Sequence of Human PD-1 (Q15116 25-167 limits assumed): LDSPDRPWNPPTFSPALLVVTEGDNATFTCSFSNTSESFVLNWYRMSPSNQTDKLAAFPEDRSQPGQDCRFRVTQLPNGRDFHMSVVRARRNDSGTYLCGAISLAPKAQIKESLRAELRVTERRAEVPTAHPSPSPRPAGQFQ

B1: BMS-986016 (antibody, human IgG4 S228P, kappa, V domains shown)
VH: QVQLQQWGAGLLKPSETLSLTCAVYGGSFSDYYWNWIRQPPGKGLEWIGEINHRGSTNSNPSLKSRVTLSLDTSKNQFSLKLRSVTAADTAVYYCAFGYSDYEYNWFDPWGQGTLVTVSS
VL: EIVLTQSPATLSLSPGERATLSCRASQSISSYLAWYQQKPGQAPRLLIYDASNRATGIPARFSGSGSGTDFTLTISSLEPEDFAVYYCQQRSNWPLTFGQGTNLEIKR
notes: also called benchmark antibody; positive control anti-LAG-3 monoclonal antibody (Bristol-Myers Squibb)
A word on the EC50: it is the concentration that produces a half-maximal response. A low value points to a more potent agent. By Kd is commonly meant the equilibrium constant for the complex coming apart. Take B1: the EC50 in [1] stood at 17.6 nM. Besides, the Kd in experiment [2] is 1.7 nM; in experiment [3], 1000 nM. Moreover, the “LAG-3 blockade reporter assay EC50” value in experiment [4] is 3.82 nM; in experiment [5], 3.29 nM and 3.82 nM. The “LAG-3 blockade reporter assay Signal span (% activation)” value in experiment [4] is 76.8 % activation.

B2: BLP-1 (bispecific antibody, human IgG4 S228P, kappa)
heavy: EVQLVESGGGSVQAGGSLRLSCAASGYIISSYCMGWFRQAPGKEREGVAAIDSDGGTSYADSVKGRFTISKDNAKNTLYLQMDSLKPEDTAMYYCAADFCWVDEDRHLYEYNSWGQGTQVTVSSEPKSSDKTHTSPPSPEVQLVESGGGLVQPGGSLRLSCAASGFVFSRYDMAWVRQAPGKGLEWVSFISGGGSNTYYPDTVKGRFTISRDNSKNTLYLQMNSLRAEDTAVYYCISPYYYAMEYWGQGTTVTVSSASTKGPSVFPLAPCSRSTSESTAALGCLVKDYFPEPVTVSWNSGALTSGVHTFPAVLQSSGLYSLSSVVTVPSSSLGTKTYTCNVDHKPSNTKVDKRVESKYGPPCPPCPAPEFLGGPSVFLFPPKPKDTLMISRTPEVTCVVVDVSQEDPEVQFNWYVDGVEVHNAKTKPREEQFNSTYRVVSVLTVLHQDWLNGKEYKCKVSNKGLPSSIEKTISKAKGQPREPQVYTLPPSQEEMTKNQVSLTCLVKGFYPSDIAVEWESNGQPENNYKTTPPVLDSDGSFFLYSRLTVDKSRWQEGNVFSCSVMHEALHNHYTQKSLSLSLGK
light: DIQMTQSPSSVSASVGDRVTITCKASQDVDTAVAWYQQKPGKAPKLLIYWASTRHTGVPSRFSGSGSGTDFTLTISSLQPEDFATYYCQQYSTFPWTFGGGTKVEIKRTVAAPSVFIFPPSDEQLKSGTASVVCLLNNFYPREAKVQWKVDNALQSGNSQESVTEQDSKDSTYSLSSTLTLSKADYEKHKVYACEVTHQGLSSPVTKSFNRGEC
notes: also called PD-1 x LAG-3 proof-of-concept BABP
Take B2: the EC50 was 1.8 nM in experiment [6], 7.91 nM in experiment [7], 6.66 nM in experiment [8] and 0.883 nM in [9]. The Kd in experiment [10] was 0.44 nM; in [11], 1.8 nM. Also, the “LAG-3 blockade reporter assay EC50” value in experiment [5] was 4.6 nM. In addition, in [12], the “PD-1 cell based reporter assay EC50” value was 7.62 nM.

The values above are taken from patent publication US20210017279A1 (NANJING LEGEND BIOTECH, published 2021).
